Changes are numbered by the printed parent chain. In names and notes the source's numbering stands.
T1: VEGF121 (human, UniProt P15692 27-147)
T1 construct: mature; also called Purified VEGF121
T1 sequence (looked up): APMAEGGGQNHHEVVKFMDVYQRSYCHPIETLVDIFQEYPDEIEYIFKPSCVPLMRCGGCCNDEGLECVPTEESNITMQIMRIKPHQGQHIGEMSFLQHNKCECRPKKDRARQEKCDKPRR

B1: Y0313-1 (Fab, V domains shown)
VH: EVQLVESGGGLVQPGGSLRLSCAASGYDFTHYGMNWVRQAPGKGLEWVGWINTYTGEPTYAADFKRRFTFSLDTSKSTAYLQMNSLRAEDTAVYYCAKYPYYYGTSHWYFDVWGQGTL
VL: DIQLTQSPSSLSASVGDRVTITCRANEQLSNYLNWYQQKPGKAPKVLIYFTSSLHSGVPSRFSGSGSGTDFTLTISSLQPEDFATYYCQQYSTVPWTFGQGTKVEIKR
notes: Combination variant: Y0243-1 plus VH3 H101Y and S105T; soluble Fab
B2: hu2.10V (Fab, V domains shown)
VH: EVQLVESGGGLVQPGGSLRLSCAASGYTFTNYGMNWIRQAPGKGLEWVGWINTYTGEPTYAADFKRRFTISLDTSASTVYLQMNSLRAEDTAVYYCAKYPHYYGSSHWYFDVWGQGTLVTVSS
VL: DIQMTQSPSSLSASVGDRVTITCSASQDISNYLNWYQQKPGKAPKVLIYFTSSLHSGVPSRFSGSGSGTDYTLTISSLQPEDFATYYCQQYSTVPWTFGQGTKVEIK
notes: Soluble Fab with human constant domains; also called hu2.10 with mutation VL Leu->Val
B3: pY0192 VH Y27A (Fab, V domains shown)
VH: B1 VH with Y27A, D28T, H31N, M34I, Y101H, T105S
VL: B1 VL
B4: pY0192 VH T59A (Fab, V domains shown)
VH: B1 VH with D28T, H31N, M34I, T59A, Y101H, T105S
VL: B1 VL
B5: pY0192 VH Y32A (Fab, V domains shown)
VH: B1 VH with D28T, H31N, Y32A, M34I, Y101H, T105S
VL: B1 VL
B6: pY0192 VH N31A (Fab, V domains shown)
VH: B1 VH with D28T, H31A, M34I, Y101H, T105S
VL: B1 VL
B7: pY0192 VH F29A (Fab, V domains shown)
VH: B1 VH with D28T, F29A, H31N, M34I, Y101H, T105S
VL: B1 VL
B8: pY0192 VH W50A (Fab, V domains shown)
VH: B1 VH with D28T, H31N, M34I, W50A, Y101H, T105S
VL: B1 VL
B9: pY0192 VH I34A (Fab, V domains shown)
VH: B1 VH with D28T, H31N, M34A, Y101H, T105S
VL: B1 VL
B10: pY0192 VH Y99A (Fab, V domains shown)
VH: B1 VH with D28T, H31N, M34I, Y99A, Y101H, T105S
VL: B1 VL
B11: pY0192 VH Y54A (Fab, V domains shown)
VH: B1 VH with D28T, H31N, M34I, Y54A, Y101H, T105S
VL: B1 VL
B12: pY0192 VH Y102A (Fab, V domains shown)
VH: B1 VH with D28T, H31N, M34I, Y101H, Y102A, T105S
VL: B1 VL
B13: pY0192 VH T55A (Fab, V domains shown)
VH: B1 VH with D28T, H31N, M34I, T55A, Y101H, T105S
VL: B1 VL
B14: pY0192 VH S106A (Fab, V domains shown)
VH: B1 VH with D28T, H31N, M34I, Y101H, T105S, S106A
VL: B1 VL
B15: pY0192 VH N35A (Fab, V domains shown)
VH: B1 VH with D28T, H31N, M34I, N35A, Y101H, T105S
VL: B1 VL
B16: pY0192 VH Y103A (Fab, V domains shown)
VH: B1 VH with D28T, H31N, M34I, Y101H, Y103A, T105S
VL: B1 VL
B17: pY0192 VH F110A (Fab, V domains shown)
VH: B1 VH with D28T, H31N, M34I, Y101H, T105S, F110A
VL: B1 VL
B18: pY0192 VH I51A (Fab, V domains shown)
VH: B1 VH with D28T, H31N, M34I, I51A, Y101H, T105S
VL: B1 VL
B19: pY0192 VH N52A (Fab, V domains shown)
VH: B1 VH with D28T, H31N, M34I, N52A, Y101H, T105S
VL: B1 VL
B20: pY0192 VH P100A (Fab, V domains shown)
VH: B1 VH with D28T, H31N, M34I, P100A, Y101H, T105S
VL: B1 VL
B21: pY0192 VH T53A (Fab, V domains shown)
VH: B1 VH with D28T, H31N, M34I, T53A, Y101H, T105S
VL: B1 VL
B22: pY0192 VH Y109A (Fab, V domains shown)
VH: B1 VH with D28T, H31N, M34I, Y101H, T105S, Y109A
VL: B1 VL
B23: pY0192 VH G33A (Fab, V domains shown)
VH: B1 VH with D28T, H31N, G33A, M34I, Y101H, T105S
VL: B1 VL
B24: pY0192 VH H101A (Fab, V domains shown)
VH: B1 VH with D28T, H31N, M34I, Y101A, T105S
VL: B1 VL
B25: pY0192 VH W108A (Fab, V domains shown)
VH: B1 VH with D28T, H31N, M34I, Y101H, T105S, W108A
VL: B1 VL
B26: Y0238-7 (Fab, V domains shown)
VH: B1 VH with D28T, H31N, M34I, Y103W
VL: B1 VL
notes: Library YC-81 (VH3) on the pY0192 template; substitutions deduced against Y0192; soluble Fab
B27: Y0244-1 (Fab, V domains shown)
VH: B1 VH with D28T, H31N, M34I, L72V, T74V, Y101H, T105S
VL: B1 VL
notes: only the randomized region is printed, substitutions deduced against Y0192; soluble Fab from E. coli 34B8
B28: Y0244-4 (Fab, V domains shown)
VH: B1 VH with D28T, H31N, M34I, L72I, T74K, Y101H, T105S
VL: B1 VL
notes: substitutions deduced against Y0192; soluble Fab
B29: Y0313-3 (Fab, V domains shown)
VH: B1 VH with D28T, H31N, M34I, T105S
VL: B1 VL
notes: Reversion mutant of Y0238-3; soluble Fab
B30: Y0238-3 (Fab, V domains shown)
VH: B1 VH with D28T, H31N, M34I
VL: B1 VL
notes: CDRH3 variant (H101Y, S105T) from library YC-81; soluble Fab
B31: Y0238-10 (Fab, V domains shown)
VH: B1 VH with D28T, H31N, M34I, Y103R, G104N
VL: B1 VL
notes: as for B26
B32: Y0243-1 (Fab, V domains shown)
VH: B1 VH with Y101H, T105S
VL: B1 VL
notes: CDRH1 variant (T28D, N31H) from library HL-265; soluble Fab
B33: Y0238-5 (Fab, V domains shown)
VH: B1 VH with D28T, H31N, M34I, Y103I, G104A, T105K
VL: B1 VL
notes: as for B26
B34: Y0238-1 (Fab, V domains shown)
VH: B1 VH with D28T, H31N, M34I, Y103R
VL: B1 VL
notes: as for B26
B35: hu2.10 (Fab, V domains shown)
VH: B2 VH
VL: B2 VL with V46L
notes: Phage-selected consensus clone, purified soluble Fab with human constant domains; also called consensus clone hu2.10
B36: muMAb VEGF A.4.6.1 (antibody, V domains shown)
VH: EIQLVQSGPELKQPGETVRISCKASGYTFTNYGMNWVKQAPGKGLKWMGWINTYTGEPTYAADFKRRFTFSLETSASTAYLQISNLKNDDTATYFCAKYPHYYGSSHWYFDVWGAGTTVTVSS
VL: DIQMTQTTSSLSASLGDRVIISCSASQDISNYLNWYQQKPDGTVKVLIYFTSSLHSGVPSRFSGSGSGTDYSLTISNLEPEDIATYYCQQYSTVPWTFGGGTKLEIKR

target: rhVEGF165 (human, UniProt P15692 27-191); test: cell-based or functional assay

Q: With B1 as the binder, how does the “potency in inhibiting VEGF-induced HuVEC DNA synthesis, against the wild-type Fab (Y0192)” value read?
A: The value was 30 fold.

target: T1, VEGF121; test: BIAcore SPR, VEGF121 immobilised

Q: B2 was tested. Which “fold improvement in KD over hu2.10” value did it give?
A: Its value is 6 fold.

target: T2, VEGF (human, UniProt P15692-4 27-191, limits assumed); test: competitive phage-ELISA, wt = pY0192
T2 construct: also called human VEGF; vascular endothelial growth factor
Target sequence in this assay (P15692 other isoform, or with tags, fused parts or gaps limits assumed): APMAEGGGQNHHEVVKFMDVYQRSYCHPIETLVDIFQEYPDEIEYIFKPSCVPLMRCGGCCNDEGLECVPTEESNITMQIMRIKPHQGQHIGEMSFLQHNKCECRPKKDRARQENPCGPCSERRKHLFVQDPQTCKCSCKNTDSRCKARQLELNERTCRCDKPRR

Q: Which IC50 (mut) / IC50 (wt) does the source give for B3 here?
A: The IC50 (mut) / IC50 (wt) was 34.

Q: Which IC50 (mut) / IC50 (wt) does the source give for B4 here?
A: Its IC50 (mut) / IC50 (wt) is 3.

Q: B5 was tested. Which IC50 (mut) / IC50 (wt) did it give?
A: The IC50 (mut) / IC50 (wt) was greater than 150.

Q: With B6 as the binder, how does the IC50 (mut) / IC50 (wt) read?
A: Its IC50 (mut) / IC50 (wt) is greater than 150.

Q: For B7, which IC50 (mut) / IC50 (wt) is on record?
A: The IC50 (mut) / IC50 (wt) was 16.

Q: For B8, which IC50 (mut) / IC50 (wt) is on record?
A: The IC50 (mut) / IC50 (wt) was greater than 150.

Q: Which IC50 (mut) / IC50 (wt) does the source give for B9 here?
A: Its IC50 (mut) / IC50 (wt) is 6.

Q: With B10 as the binder, how does the IC50 (mut) / IC50 (wt) read?
A: The IC50 (mut) / IC50 (wt) was greater than 150.

Q: With B11 as the binder, how does the IC50 (mut) / IC50 (wt) read?
A: The IC50 (mut) / IC50 (wt) was 9.

Q: With B12 as the binder, how does the IC50 (mut) / IC50 (wt) read?
A: The IC50 (mut) / IC50 (wt) was 4.

Q: For B13, which IC50 (mut) / IC50 (wt) is on record?
A: The IC50 (mut) / IC50 (wt) was 4.

Q: B14 was tested. Which IC50 (mut) / IC50 (wt) did it give?
A: The IC50 (mut) / IC50 (wt) was greater than 150.

Q: For B15, which IC50 (mut) / IC50 (wt) is on record?
A: Its IC50 (mut) / IC50 (wt) is 66.

Q: For B16, which IC50 (mut) / IC50 (wt) is on record?
A: The IC50 (mut) / IC50 (wt) was 5.

Q: For B17, which IC50 (mut) / IC50 (wt) is on record?
A: Its IC50 (mut) / IC50 (wt) is 25.

Q: With B18 as the binder, how does the IC50 (mut) / IC50 (wt) read?
A: Its IC50 (mut) / IC50 (wt) is 4.

Q: Which IC50 (mut) / IC50 (wt) does the source give for B19 here?
A: The IC50 (mut) / IC50 (wt) was greater than 150.

Q: Which IC50 (mut) / IC50 (wt) does the source give for B20 here?
A: The IC50 (mut) / IC50 (wt) was 38.

Q: B21 was tested. Which IC50 (mut) / IC50 (wt) did it give?
A: Its IC50 (mut) / IC50 (wt) is 9.

Q: With B22 as the binder, how does the IC50 (mut) / IC50 (wt) read?
A: Its IC50 (mut) / IC50 (wt) is 19.

Q: With B23 as the binder, how does the IC50 (mut) / IC50 (wt) read?
A: Its IC50 (mut) / IC50 (wt) is 6.

Q: How did the IC50 (mut) / IC50 (wt) turn out when B24 was run?
A: The IC50 (mut) / IC50 (wt) was 4.

Q: How did the IC50 (mut) / IC50 (wt) turn out when B25 was run?
A: Its IC50 (mut) / IC50 (wt) is greater than 150.

target: T2, VEGF; test: BIAcore-2000 SPR, wt = Y0192
Target sequence in this assay (P15692 other isoform, or with tags, fused parts or gaps limits assumed): as above

Q: How did the “Kd (wt) / Kd (mut)” value turn out when B26 was run?
A: The value was no less than 7.3 ratio.

Q: B27 was tested. Which “Kd (wt) / Kd (mut)” value did it give?
A: The value was 3.6 ratio.

Q: B28 was tested. Which “Kd (wt) / Kd (mut)” value did it give?
A: The value was 0.9 ratio.

Q: How did the “Kd (wt) / Kd (mut)” value turn out when B29 was run?
A: Its value is 4.5 ratio.

Q: Which “Kd (wt) / Kd (mut)” value does the source give for B30 here?
A: The value was no less than 14 ratio.

Q: With B31 as the binder, how does the “Kd (wt) / Kd (mut)” value read?
A: The value was 4.8 ratio.

Q: For B1, which “Kd (wt) / Kd (mut)” value is on record?
A: The value was no less than 20 ratio.

Q: Which “Kd (wt) / Kd (mut)” value does the source give for B32 here?
A: The value was 4.1 ratio.

Q: For B33, which “Kd (wt) / Kd (mut)” value is on record?
A: Its value is 3.2 ratio.

Q: For B34, which “Kd (wt) / Kd (mut)” value is on record?
A: The value was 7.3 ratio.

target: T1, VEGF121; test: BIAcore SPR, VEGF121 immobilised, Fab in solution

Q: B35 was tested. Which “KD(A4.6.1)/KD(mut) as headed (values are KD(mut) over KD of the chimera)” value did it give?
A: Its value is 35 ratio.

Q: B2 was tested. Which “KD(A4.6.1)/KD(mut) as headed (values are KD(mut) over KD of the chimera)” value did it give?
A: Its value is 5.8 ratio.

target: T2, VEGF; test: KDR-IgG competition ELISA, biotinylated VEGF, 10% human serum

Q: With B36 as the binder, how does the IgG1/chIgG1 (EC50 ratio) read?
A: Its IgG1/chIgG1 (EC50 ratio) is 0.759.

From patent EP2336190A2 (Genentech, Inc., dated 2011)
